Patent publication US20120058906A1

Columns and labels:
[1] = target: rHuman IGF-1 sR (IGF-1 sR), CF (R&D Systems Cat#391-GR) (human) (UniProt P08069); assay: ECL (MSD multi-spot), Fab […]; blank 162
[2] = target: rHuman Notch-1/Fc Chimera, CF (R&D Systems Cat#3647-TK) (human) (UniProt P46531); assay: ECL (MSD multi-spot), Fab […]; blank 162
[3] = target: rHuman IGF-1 sR (IGF-1 sR), CF (R&D Systems Cat#391-GR) (human) (UniProt P08069); assay: ECL (MSD multi-spot), Fab 170 nM; blank 262
[4] = target: rHuman P-Cadherin/Fc Chimera, CF (R&D Systems Cat#861-PC) (human) (UniProt P22223); assay: ECL (MSD multi-spot), Fab 170 nM; blank 262
[5] = target: rHuman EGF R/Fc Chimera, CF (R&D Systems Cat#344-ER) (human) (UniProt P00533); assay: ECL (MSD multi-spot), Fab 170 nM; blank 262
[6] = target: rHuman Erythropoietin R/Fc Chimera, CF (R&D Systems Cat#963-ER) (human) (UniProt P19235); assay: ECL (MSD multi-spot), Fab 170 nM; blank 262
Chain of rHuman Erythropoietin R/Fc Chimera, CF (R&D Systems Cat#963-ER) (human) (P19235 25-250, change not shown): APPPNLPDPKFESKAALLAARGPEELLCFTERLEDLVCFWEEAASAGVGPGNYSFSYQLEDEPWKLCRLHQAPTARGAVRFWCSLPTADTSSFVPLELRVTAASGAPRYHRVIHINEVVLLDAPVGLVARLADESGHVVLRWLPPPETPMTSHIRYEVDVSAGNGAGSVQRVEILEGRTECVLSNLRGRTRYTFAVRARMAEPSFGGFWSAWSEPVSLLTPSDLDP

[7] = target: rHuman Notch-1/Fc Chimera, CF (R&D Systems Cat#3647-TK) (human) (UniProt P46531); assay: ECL (MSD multi-spot), Fab 170 nM; blank 262
[8] = target: rHuman HGF R/c-MET/Fc Chimera, CF (R&D Systems Cat#358-MT/CF) (human) (UniProt P08581); assay: ECL (MSD multi-spot), Fab 170 nM; blank 262
[9] = target: rHuman CD44/Fc Chimera, CF (R&D Systems Cat#3660-CD) (human) (UniProt P16070); assay: ECL (MSD multi-spot), Fab 170 nM; blank 262
[10] = target: rHuman ErbB2/Fc Chimera, CF (R&D Systems Cat#1129-ER) (human) (UniProt P04626); assay: ECL (MSD multi-spot), Fab 170 nM; blank 262

ECL signal [1]: 646 ECL signal
ECL signal [2]: 649 ECL signal
ECL signal [3]: 832 ECL signal
ECL signal [4]: 744 ECL signal
ECL signal [5]: 826 ECL signal
ECL signal [6]: 790 ECL signal
ECL signal [7]: 816 ECL signal
ECL signal [8]: 757 ECL signal
ECL signal [9]: 660 ECL signal
ECL signal [10]: 964 ECL signal
Substance: Fab VH4-34_IGHD7-27*01_IGHJ4*01 & V4-6_IGLJ4*01
